Results on 1 molecule are retold here after US20150023989A1 (Seagen, published 2015).

The target in the experiment is T1, hFGFR2α-Fc (IIIb) (Human, UniProt P21802-3 22-378, biotinylated with biotin-LC-NHS (2-fold molar excess), positions not stated).
T1 construct: Bought protein; also called RnD Systems 663-FR; not shown: Fc part of the bought fusion protein
The experiment in a line: ELISA; biotinylated Fc fusion protein on streptavidin plate, Fab at 1 µg/ml; signal against TRAIL-Fc wells (+++: ratio >5). (ELISA stands for enzyme-linked immunosorbent assay.)

T1 sequence (P21802 other isoform, or with tags, fused parts or gaps limits assumed): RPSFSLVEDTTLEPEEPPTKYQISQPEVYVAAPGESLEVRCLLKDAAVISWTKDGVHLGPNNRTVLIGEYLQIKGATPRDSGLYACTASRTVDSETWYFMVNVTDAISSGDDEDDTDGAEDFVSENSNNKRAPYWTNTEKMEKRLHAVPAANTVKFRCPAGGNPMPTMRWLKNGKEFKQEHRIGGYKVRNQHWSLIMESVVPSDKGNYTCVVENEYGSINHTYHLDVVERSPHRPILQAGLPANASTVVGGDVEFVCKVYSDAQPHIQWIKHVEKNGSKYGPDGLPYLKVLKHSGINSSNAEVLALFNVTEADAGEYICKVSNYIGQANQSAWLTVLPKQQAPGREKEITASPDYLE

B1: parental Fab fragment M048-D01 (Fab, V domains shown)
VH: EVQLLESGGGLVQPGGSLRLSCAASGFTFSSYAMSWVRQAPGKGLEWVSAISGSGTSTYYADSVKGRFTISRDNSKNTLYLQMNSLRAEDTAVYYCARVRYNWNHGDWFDPWGQGTLVTVSS
VL: QSVLTQPPSASGTPGQRVTISCSGSSSNIGNNYVSWYQQLPGTAPKLLIYENYNRPAGVPDRFSGSKSGTSASLAISGLRSEDEADYYCSSWDDSLNYWVFGGGTKLTVL
notes: Fab from the n-CoDeR phage display library, expressed in E. coli and purified through its his-tag; constant domains and tag are not; also called M048-D01 Fab; sFab
For B1, the binding result is “binds”.
